Here are results for 1 molecule from patent publication US20110189776, “PROKARYOTIC RNAi-LIKE SYSTEM AND METHODS OF USE” (University of Georgia Research Foundation, Inc., published 2011).

In this series the target is native psiRNP containing Cmr1-1, Cmr1-2, Cmr2, Cmr3, Cmr4, Cmr5, Cmr6 (Pyrococcus furiosus, UniProt Q8U1S5;Q8U3V3;Q8U1S6;Q8U1S7;Q8U1S9;Q8U1T0;Q8U1T1 …). Put plainly: EMSA; native gel Northern with psiRNA 7.01 probe; mobility shift lost on deproteinization. The following applies: tags: S-sepharose peak fraction, endogenous psiRNAs; other co-purifying proteins present. On the technique in general: Mobility shift assays separate free from complexed probe on a gel.

For AUUGAAAGUUGUAGUAUGCGGUCCUUGCGGCUGAGAGCACUUCAG (ssRNA) [psiRNA 7.01, 45 nt], the binding result is listed as “binds”.
